Experimental data reported in article PMC3300031 (Nucleic Acids Research, 2011).

B1: Pyrococcus furiosus NurA (Pf NurA), wild type (enzyme, UniProt Q8U1N8 1-451, looked up)
chain: MRLLSKQSIERITKILLDELENVRENEQIRNIINSWKPLPSPEKSSIYAVDGSRSVSRLSGTVIYFLSALAVGSGKQLRLSYANAIKSNYGTSDQIVRMQMETLENMLGYLAYRKLEGEKRAILMDGTLTGSLVRPPVYPEDIRSLNVMRALIGESDFENLLNEFLEKLRDHYRKVEEHLEKNGNYDSPILTDNVVEKLRKKYIDTKVIAYGSGKVKVKIPRKALGYSPRVIPIEVLESSRGKSVDELLQELDEEKVELYLGKDDIYDALHMTLSYIEYLYSIDKLLEVKNLAYIAKSFYTKTLARTLGVEIVDTALLDAVIRTLIGHEKEGYLEIEHAVVPPKWSFPDFLLSKFRNIEKLIDKGIHLAYVRFEQGDVIYMLQSTTNIEKILPLILHHKAGGYLRPLQLAHHGVKISYKEARHTLEALINALRNRDPALKIFVKYGRSPLE
B2: Pf NurA R11A/I12E/S60Y dimeric interface mutant (enzyme, Pyrococcus furiosus)
chain: MRLLSKQSIEAETKILLDELENVRENEQIRNIINSWKPLPSPEKSSIYAVDGSRSVSRLYGTVIYFLSALAVGSGKQLRLSYANAIKSNYGTSDQIVRMQMETLENMLGYLAYRKLEGEKRAILMDGTLTGSLVRPPVYPEDIRSLNVMRALIGESDFENLLNEFLEKLRDHYRKVEEHLEKNGNYDSPILTDNVVEKLRKKYIDTKVIAYGSGKVKVKIPRKALGYSPRVIPIEVLESSRGKSVDELLQELDEEKVELYLGKDDIYDALHMTLSYIEYLYSIDKLLEVKNLAYIAKSFYTKTLARTLGVEIVDTALLDAVIRTLIGHEKEGYLEIEHAVVPPKWSFPDFLLSKFRNIEKLIDKGIHLAYVRFEQGDVIYMLQSTTNIEKILPLILHHKAGGYLRPLQLAHHGVKISYKEARHTLEALINALRNRDPALKIFVKYGRSPLE
B3: Pf NurA ΔN26 dimeric interface mutant (first 26 residues deleted) (domain or fragment, Pyrococcus furiosus, UniProt Q8U1N8 27-451, looked up)
chain: EQIRNIINSWKPLPSPEKSSIYAVDGSRSVSRLSGTVIYFLSALAVGSGKQLRLSYANAIKSNYGTSDQIVRMQMETLENMLGYLAYRKLEGEKRAILMDGTLTGSLVRPPVYPEDIRSLNVMRALIGESDFENLLNEFLEKLRDHYRKVEEHLEKNGNYDSPILTDNVVEKLRKKYIDTKVIAYGSGKVKVKIPRKALGYSPRVIPIEVLESSRGKSVDELLQELDEEKVELYLGKDDIYDALHMTLSYIEYLYSIDKLLEVKNLAYIAKSFYTKTLARTLGVEIVDTALLDAVIRTLIGHEKEGYLEIEHAVVPPKWSFPDFLLSKFRNIEKLIDKGIHLAYVRFEQGDVIYMLQSTTNIEKILPLILHHKAGGYLRPLQLAHHGVKISYKEARHTLEALINALRNRDPALKIFVKYGRSPLE

Tests used:
AUC + SEC = molecular target: the molecule itself; assay: AUC + SEC
SEC = molecular target: the molecule itself; assay: SEC

Protein	stoichiometry N (AUC + SEC)	stoichiometry N (SEC)
B1	2	–
B2	–	~2
B3	–	4
